Measured values published in PMC11147762.

Assays:
[1] = biological target: DDX41-R525H (Homo sapiens, UniProt Q9UJV9 1-622, R525H); experiment: EMSA; EMSA, 0-1300 nM protein with 10 nM nucleic acid; buffer, salt, pH and temperature not in material; conditions: protein: recombinant; label: 5'-Cy5 on oligo1; 5'-Cy3 on RNA; bubble of oligo1/oligo2 with 25-nt RNA paired to oligo2
[2] = biological target: DDX41-ΔHel-Y259C (Homo sapiens, UniProt Q9UJV9 1-406+568-622, Y259C;internal_change); experiment: as above; conditions: protein: recombinant; label: 5'-Cy5 on oligo1; 5'-Cy3 on RNA; bubble of oligo1/oligo2 with 25-nt RNA paired to oligo2
[3] = biological target: T1, DDX41-ΔHel-WT (DDX41 D3) (Homo sapiens, UniProt Q9UJV9 1-406+568-622, internal_change); experiment: as above; conditions: protein: recombinant, label: 5'-Cy5 on oligo1
[4] = biological target: T1, DDX41-ΔHel-WT (DDX41 D3); experiment: EMSA; m6A had no effect on affinity; EMSA, 0-1300 nM protein with 10 nM nucleic acid; buffer, salt, pH and temperature not in material; conditions: protein: recombinant; label: 5'-Cy5 on oligo1; 5'-Cy3 on RNA; bubble of oligo1/oligo2 with 25-nt RNA paired to oligo2

T1 sequence (Q9UJV9 other isoform, or with tags, fused parts or gaps | mutant): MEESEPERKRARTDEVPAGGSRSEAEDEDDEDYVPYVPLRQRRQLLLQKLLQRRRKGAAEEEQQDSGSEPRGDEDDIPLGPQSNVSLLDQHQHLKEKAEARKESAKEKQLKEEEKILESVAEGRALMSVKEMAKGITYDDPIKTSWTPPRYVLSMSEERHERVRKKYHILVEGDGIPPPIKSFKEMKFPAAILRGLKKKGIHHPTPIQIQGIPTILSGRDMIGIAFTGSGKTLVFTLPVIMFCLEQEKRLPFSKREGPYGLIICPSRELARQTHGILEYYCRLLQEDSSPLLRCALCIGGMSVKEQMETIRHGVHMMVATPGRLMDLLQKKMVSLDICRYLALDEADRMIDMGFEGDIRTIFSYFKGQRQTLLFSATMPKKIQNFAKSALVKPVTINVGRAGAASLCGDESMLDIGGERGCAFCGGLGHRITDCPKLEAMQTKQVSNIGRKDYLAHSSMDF
Chain of DDX41-R525H (Q9UJV9 whole entry R525H): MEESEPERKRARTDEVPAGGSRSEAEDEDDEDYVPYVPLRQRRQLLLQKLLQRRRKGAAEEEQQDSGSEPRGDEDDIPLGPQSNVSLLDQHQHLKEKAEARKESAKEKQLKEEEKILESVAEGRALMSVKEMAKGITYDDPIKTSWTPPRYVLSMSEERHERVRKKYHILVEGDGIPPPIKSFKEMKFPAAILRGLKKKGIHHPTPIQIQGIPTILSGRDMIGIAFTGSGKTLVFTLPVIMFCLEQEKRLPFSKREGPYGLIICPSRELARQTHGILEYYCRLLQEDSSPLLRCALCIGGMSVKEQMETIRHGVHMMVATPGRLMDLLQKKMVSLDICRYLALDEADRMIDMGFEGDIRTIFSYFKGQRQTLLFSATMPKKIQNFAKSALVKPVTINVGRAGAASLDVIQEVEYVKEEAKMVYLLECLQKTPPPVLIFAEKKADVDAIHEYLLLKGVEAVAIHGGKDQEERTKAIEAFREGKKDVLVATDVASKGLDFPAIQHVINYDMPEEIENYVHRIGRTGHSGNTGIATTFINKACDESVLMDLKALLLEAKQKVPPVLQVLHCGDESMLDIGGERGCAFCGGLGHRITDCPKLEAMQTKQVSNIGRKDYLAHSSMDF
Chain of DDX41-ΔHel-Y259C (Q9UJV9 other isoform, or with tags, fused parts or gaps Y259C/| Y259C Y259C): as the sequence (Q9UJV9 other isoform, or with tags, fused parts or gaps | mutant) above, with Y259C counted along it

B1: R-loop (mixed)
DNA 1: GCCAGGGACGAGGTGAACCTGCAGGTGGGCGGCTACTACTTAGATGTCATCCGAGGCTTATTGGTAGAATTCGGCAGCGTCATGCGACGGC
DNA 2: GCCGTCGCATGACGCTGCCGAATTCTACCACGCGATTCATACCTGTCGTGCCAGCTGCTTTGCCCACCTGCAGGTTCACCTCGTCCCTGGC
RNA: GCAGCUGGCACGACAGGUAUGAAUC
B1: binds [1]; binds [2]; binds ([3]; 5'-Cy3 on RNA, bubble of oligo1/oligo2 with 25-nt RNA paired to oligo2).

B2: D-loop (structured_DNA)
DNA 1: GCCAGGGACGAGGTGAACCTGCAGGTGGGCGGCTACTACTTAGATGTCATCCGAGGCTTATTGGTAGAATTCGGCAGCGTCATGCGACGGC
DNA 2: GCCGTCGCATGACGCTGCCGAATTCTACCACGCGATTCATACCTGTCGTGCCAGCTGCTTTGCCCACCTGCAGGTTCACCTCGTCCCTGGC
DNA 3: GCAGCTGGCACGACAGGTATGAATC
B2: binds ([3]; bubble with 25-nt DNA paired to oligo2).

B3: m6A R-loop (mixed)
DNA 1: GCCAGGGACGAGGTGAACCTGCAGGTGGGCGGCTACTACTTAGATGTCATCCGAGGCTTATTGGTAGAATTCGGCAGCGTCATGCGACGGC
DNA 2: GCCGTCGCATGACGCTGCCGAATTCTACCACGCGATTCATACCTGTCGTGCCAGCTGCTTTGCCCACCTGCAGGTTCACCTCGTCCCTGGC
RNA: GCAGCUGGCACGACAGGUAUGAAUC
modifications: m6A in RNA strand; positions not visible in material
B3: binds [4].
